Reference: US20240409663A1 (CONCEPT TO MEDICINE BIOTECH, published 2024)
Numbering of substitutions follows the chain as printed.

B1: 52H5D3B8-6#-VH2+VL1 (antibody, V domains shown)
VH: QVQLVQSGAEVKKPGASVKVSCKASGYTFTDYEMHWVRQAPGQGLEWIGAIHPGSGGTAYNQKFKGRVTMTADTSTSTVYMELSSLRSEDTAVYYCTRYYSYAYWGQGTLVTVSS
VL: DIVMTQTPLSLSVTPGQPASISCRSSQSLVHSNGNTYLQWYLQKPGQSPQLLIYKVSNRFSGVPDRFSGSGSGTDFTLKISRVEAEDVGVYYCFQSIHVPYTFGGGTKLEIK
notes: humanized
B2: 52H5D3B8-6#-VH1+VL3 (antibody, V domains shown)
VH: B1 VH with I48M, A72R, T97A
VL: B1 VL with Q50K
notes: humanized
B3: 52H5D3B8-6#-VH2+VL2 (antibody, V domains shown)
VH: B1 VH
VL: B1 VL with Y92F
notes: humanized
B4: 52H5D3B8-6#-VH1+VL2 (antibody, V domains shown)
VH: B1 VH with I48M, A72R, T97A
VL: B1 VL with Y92F
notes: humanized
B5: 52H5D3B8-6#-VH1+VL4 (antibody, V domains shown)
VH: B1 VH with I48M, A72R, T97A
VL: B1 VL with Q50K, Y92F
notes: humanized
B6: 52H5D3B8-6#-VH3+VL2 (antibody, V domains shown)
VH: B1 VH with S25L, R38K, M70L
VL: B1 VL with Y92F
notes: humanized
B7: 52H5D3B8-12# chimeric mAb (antibody, V domains shown)
VH: QVQLQQSGAELVRPGASVKLSCKALGYTFTDYEMHWVKQTPVHGLEWIGAIHPGSGGTAYNQKFKGKATLTADKFSSTGYMELSSLTSEDSAVYYCTRYYSYAYWGQGTLVTVSA
VL: DVVMTQTPLSLPVSLGDQASISCRSSQSLVHSNGNTYLQWYLQKPGQSPKLLIYKVSNRFSGVPDRFSGSGSGTDFILKISRVEAEDLGVYFCFQSTHVPYTFGGGTKLEIK
notes: CDR3 mutant of the 52H5D3B8 chimeric mAb (human IgG1)
B8: 52H5D3B8-13# chimeric mAb (antibody, V domains shown)
VH: B7 VH with Y102F
VL: B7 VL with F94S
notes: as for B7
B9: 52H5D3B8-14# chimeric mAb (antibody, V domains shown)
VH: B7 VH with Y102F
VL: B7 VL with T97I
notes: as for B7
B10: 52H5D3B8-15# chimeric mAb (antibody, V domains shown)
VH: B7 VH with Y102F
VL: B7 VL
notes: as for B7

Molecular target: T1, human GPC3 on cells (human, UniProt P51654 25-554)
T1 construct: whole, on cells; over-expressed on CHOK1 cells or endogenous on HEPG2, Hep3B and Huh-7 hepatocellular carcinoma cells; the cell line is named under assay; also called GPC3-CHOK1 cells; human GPC3 over-expressed CHOK1 cells
Assay: FACS, HEPG2 cells
Procedure: (§1) To evaluate the antigen binding property, the humanized antibodies were analyzed for their binding to human GPC3 over-expressed CHOK1 cells, HEPG2 cells, Hep3B cells and Huh-7 cells by FACS. Briefly, GPC3-CHOK1 cells, HEPG2 cells, Hep3B cells and Huh-7 cells were firstly incubated with Fc blocking reagent at 4° C. for 15 mins. Cells were washed by FACS buffer and divided to each well with 4-fold serially diluted humanized antibodies starting at 10 μg/mL at 4° C. for 60 mins. Cells were washed by FACS buffer and fixed with 2% PFA at RT for 15 mins. […] The 16 humanized antibodies were separated into two plates.

EC50 [µg/mL]	Binder
0.0479	B1
0.0387	B2
0.0481	B3
0.043	B4
0.0391	B5
0.0444	B6

Molecular target: T1, human GPC3 on cells
Assay: FACS, Hep3B cells
Procedure: as §1

EC50 [µg/mL]	Binder
0.0824	B1
0.0529	B2
0.0846	B3
0.0615	B4
0.0545	B5
0.0786	B6

Molecular target: T1, human GPC3 on cells
Assay: FACS, Huh-7 cells
Procedure: as §1

EC50 [µg/mL]	Binder
0.0427	B1
0.0265	B2
0.0434	B3
0.0326	B4
0.0268	B5
0.0411	B6

Molecular target: T1, human GPC3 on cells
Assay: FACS, GPC3-CHOK1 cells
Procedure: Briefly, GPC3-CHOK1 cells were firstly incubated with Fc blocking reagent at 4° C. for 15 mins. Cells were washed by FACS buffer and divided to each well with 3-fold serially diluted 52H5D3B8, 52H5D3B8-1 #, 52H5D3B8-2 #, 52H5D3B8-3 #, 52H5D3B8-4 #, 52H5D3B8-5 #, 52H5D3B8-6 #, 52H5D3B8-7 #, 52H5D3B8-8 #, 52H5D3B8-9 #, 52H5D3B8-10 #, 52H5D3B8-11 #, 52H5D3B8-12 #, 52H5D3B8-13 #, 52H5D3B8-14 # and 52H5D3B8-15# chimeric mAbs starting at 30 μg/mL at 4° C. for 60 mins. Cells were washed by FACS buffer and fixed with 2% PFA at RT for 15 mins. […] Samples were washed twice with FACS buffer.

EC50 [µg/mL]	Binder
0.235	B7
1.55	B8
0.0895	B9
0.15	B10

Molecular target: T1, human GPC3 on cells
Assay: FACS, GPC3-CHOK1 cells
Remark: another data set of the same source
Procedure: as §1

EC50 [µg/mL]	Binder
0.0384	B1
0.0341	B2
0.043	B3
0.0388	B4
0.0308	B5
0.0429	B6

Molecular target: T2, human GPC3-his tag protein (human, UniProt P51654 25-559, limits assumed)
T2 construct: recombinant soluble antigen used as analyte in all Biacore runs; also called recombinant GPC3 protein; rhGPC3-His; not shown: His tag
Assay: SPR Biacore 8K, mAb captured, affinity ranking
Procedure: To evaluate antigen binding activity, the chimeric antibody's affinity was measured by Biacore 8K. A serial dilution of human GPC3-his tag protein was injected over captured chimeric antibody 52H5D3B8-6 #-VH+VL for 3 mins at a flow rate of 30 μl/min. The antigen was allowed to dissociate for 720 s. Among the multi detection doses, two concentrations with most close affinity to the chimeric antibody's affinity were chosen for the 16 humanized antibodies' affinity detection.

Kd [nM]	koff [s⁻¹]	kon [M⁻¹ s⁻¹]	Binder
1.15	0.000742	646000	B1
1.74	0.000975	561000	B2
1.15	0.000749	651000	B3
2	0.00113	564000	B4
1.74	0.000947	546000	B5
0.883	0.000587	664000	B6

Molecular target: T2, human GPC3-his tag protein
Assay: SPR Biacore 8K, mAb captured, one or two doses GPC3-his
Procedure: The binding of the optimized antibodies of 52H5D3B8 mAb to human GPC3-his was tested with Biacore using a capture method. A single dose or two doses of human GPC3-his tag protein was injected over captured antibody. All the experiments were carried out on a Biacore 8K. Data analysis was carried out using Biacore 8K evaluation software.

Kd [nM]	koff [s⁻¹]	kon [M⁻¹ s⁻¹]	Binder
5.56	0.00133	240000	B7
28.9	0.00143	49600	B8
1.53	0.000737	481000	B9
28.2	0.00755	267000	B10

Molecular target: T2, human GPC3-his tag protein
Assay: SPR Biacore, mAb captured on CM5, GPC3-his dilution series (full kinetics)
Procedure: The binding of the humanized antibodies to recombinant GPC3 protein (human GPC3-his tag) was tested by Biacore using a capture method. 52H5D3B8-6 #-V+VL, 52H5D3B8-6 #-VH1+VL1, 52H5D3B8-6 #-VH1+VL3, 52H5D3B8-6 #-V1+VL4, 52H5D3B8-6 #-VH2+VL4, 52H5D3B8-6 #-VH3+VL1, 52H5D3B8-6 #-VH3+VL3 mAbs were captured using CM5 sensor chip. A serial dilution of human GPC3-his tag protein was injected over captured antibody for 2 mins at a flow rate of […]. The antigen was allowed to dissociate for 360 s. All the experiments were carried out on a Biacore T200.

Kd [nM]	koff [s⁻¹]	kon [M⁻¹ s⁻¹]	Binder
1.76	0.000872	494000	B2
1.85	0.000984	532000	B5
